Source: patent US20240076386A1 (Pfizer, published 2024)
Positions count from the first letter of the chain named. One block for each binder: values may come before it.

Legend:
[1] = molecular target: T1, human E-selectin extracellular domain with 10 His purification tail (human, UniProt P16581 22-556); test: SPR, antibody captured, E-selectin analyte
T1 construct: also called soluable human E-selectin extracellular domain; rhE-Selectin
T1 sequence: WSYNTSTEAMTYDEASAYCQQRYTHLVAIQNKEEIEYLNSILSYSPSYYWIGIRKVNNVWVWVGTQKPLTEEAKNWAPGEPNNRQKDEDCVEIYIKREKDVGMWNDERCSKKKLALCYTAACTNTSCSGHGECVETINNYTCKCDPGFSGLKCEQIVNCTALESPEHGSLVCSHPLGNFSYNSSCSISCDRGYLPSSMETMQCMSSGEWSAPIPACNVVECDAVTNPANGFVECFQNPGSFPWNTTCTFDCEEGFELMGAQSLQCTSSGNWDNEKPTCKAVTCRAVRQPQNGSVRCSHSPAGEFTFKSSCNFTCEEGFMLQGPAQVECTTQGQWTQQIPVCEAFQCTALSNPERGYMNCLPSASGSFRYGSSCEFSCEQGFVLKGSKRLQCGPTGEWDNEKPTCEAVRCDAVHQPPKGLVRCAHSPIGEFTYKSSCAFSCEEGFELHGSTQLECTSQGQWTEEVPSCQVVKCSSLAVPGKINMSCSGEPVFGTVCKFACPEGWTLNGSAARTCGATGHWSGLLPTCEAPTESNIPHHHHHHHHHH
Method: (§1) Final immobilization level of the capture antibody was approximately 10,000 resonance units (RU). The running buffer for immobilization and kinetics was HBS-EP+(10 mM 4-(2-hydroxyethyl)-1-piperazineethanesulfonic acid (HEPES) pH 7.4, 150 mM sodium chloride, 3 mM ethylenediaminetetraacetic acid (EDTA), 0.05% (v/v) Tween-20).
(§2) To characterize binding of antibodies to human, cynomolgus monkey, and mouse E-selectin, an antibody was diluted to 0.5 μg/mL in HBS-EP+ and captured by the anti-human IgG immobilized on flow cells 2, 3 and 4 for 30 seconds to 1 minute at a flow rate of 10 μL/minute to achieve a capture level of 70 to 300 RU. Flow cell 1 was used as a reference surface. […] HBS-EP+ buffer cycles collected for each captured antibody were used for double-referencing (Myszka D G. J. Mol. Recognition 1999; 12(5):279-84). At the end of each cycle, the entire anti-IgG surface was regenerated by a 30 second pulse of 3 M MgCl₂ and a 30 second pulse of ionic buffer (1.83 M MgCl₂, 0.92 M Urea, 1.83 M Guanidine HCl, pH 7.4) (Andersson K. Analy. Chem. 1999; 71(13): 2475-81). Kinetic assays were conducted at 25° C. at a collection rate of 10 Hertz (Hz) on a BIAcore™ T200 instrument (GE Healthcare). Rate constants and affinities were determined by fitting the data to a 1:1 binding model in BIAcore™ T200 Evaluation software version 3.0 (GE Healthcare).
(§3) This was done by first binding the antibody to immobilized anti-human IgG. After antibody capture, dilutions of the E-selectin proteins were flowed over and the association rate constant (ka), disassociation rate constant (kd), t½, and KD values were determined for binding to human and cynomolgus E-selectin (Table 13).

[2] = molecular target: T2, cynomolgus monkey E-selectin extracellular domain with 10 His purification tail (cynomolgus monkey, UniProt P16581 22-554 (human entry)); test: SPR, antibody captured, E-selectin analyte
T2 construct: also called cynomolgus E-selectin; truncated cynomolgus monkey E-selectin
T2 chain: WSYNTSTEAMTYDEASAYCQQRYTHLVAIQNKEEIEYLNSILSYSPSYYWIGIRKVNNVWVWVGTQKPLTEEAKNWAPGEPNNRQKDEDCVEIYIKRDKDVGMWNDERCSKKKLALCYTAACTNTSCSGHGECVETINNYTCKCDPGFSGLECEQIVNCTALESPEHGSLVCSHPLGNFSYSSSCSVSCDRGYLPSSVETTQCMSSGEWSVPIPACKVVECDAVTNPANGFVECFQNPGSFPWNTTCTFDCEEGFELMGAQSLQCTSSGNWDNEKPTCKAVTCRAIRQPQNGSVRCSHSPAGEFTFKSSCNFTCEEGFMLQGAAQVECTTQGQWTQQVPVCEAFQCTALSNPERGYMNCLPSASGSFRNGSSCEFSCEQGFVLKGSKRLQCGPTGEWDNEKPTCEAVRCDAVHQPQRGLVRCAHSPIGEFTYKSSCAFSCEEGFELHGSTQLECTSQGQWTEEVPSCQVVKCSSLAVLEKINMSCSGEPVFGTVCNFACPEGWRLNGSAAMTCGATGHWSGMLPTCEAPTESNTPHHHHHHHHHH
Method: as §1, §2, §3

[3] = molecular target: T3, recombinant histidine-tagged cynomolgus monkey E-selectin (Sino Biologicals; 190169-C08H) (cynomolgus monkey, UniProt A0A2K5U7H9 22-554); test: neutralization of sialyl Lewis A ligand binding, soluble recombinant protein, competition ELISA
T3 construct: also called recombinant cynomolgus monkey E-selectin
T3 sequence: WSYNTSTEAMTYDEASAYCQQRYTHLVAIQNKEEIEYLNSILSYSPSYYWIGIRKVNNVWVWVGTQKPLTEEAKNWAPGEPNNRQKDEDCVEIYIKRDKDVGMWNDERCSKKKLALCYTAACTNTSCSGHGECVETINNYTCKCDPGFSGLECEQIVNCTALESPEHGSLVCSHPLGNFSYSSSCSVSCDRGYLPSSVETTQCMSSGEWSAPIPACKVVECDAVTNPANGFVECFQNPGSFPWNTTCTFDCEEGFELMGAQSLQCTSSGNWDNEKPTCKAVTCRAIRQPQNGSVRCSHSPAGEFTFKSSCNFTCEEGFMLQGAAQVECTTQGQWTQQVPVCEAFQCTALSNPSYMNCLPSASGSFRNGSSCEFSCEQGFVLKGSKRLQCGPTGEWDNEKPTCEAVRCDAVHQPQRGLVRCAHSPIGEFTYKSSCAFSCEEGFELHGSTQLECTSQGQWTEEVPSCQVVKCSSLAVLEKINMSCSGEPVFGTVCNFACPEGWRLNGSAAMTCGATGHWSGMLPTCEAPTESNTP
Method: Recombinant histidine-tagged E-selectin; cynomolgus monkey E-selectin (Sino Biologicals; 190169-C08H) and human E-selectin (Sino Biologicals; 13025-H08H) stock solutions were prepared to a final concentration of 3 μg/mL in phosphate buffered saline (PBS) without calcium and magnesium. One hundred μL per well of the diluted recombinant E-selectin protein was added into a Ni-NTA HisSorb 96 well plate (Qiagen, 35061) and plates were incubated on an orbital shaker at room temperature for 2 hours. Sialyl Lewis A polyacrylamide biotin, a synthetic E-selectin ligand (GlycoTech corporation 01-044), was conjugated to streptavidin HRP (horse radish peroxidase) (Ultra Streptavidin HRP, Thermo Scientific N504) and diluted in assay diluent containing 2 mM calcium chloride (BD OptEIA buffer; BD Biosciences, 555213).

Kd [1]: 92.8 nM
koff [1]: 0.0237 s⁻¹
kon [1]: 255000 M⁻¹ s⁻¹
t½ [1]: 29.3 s
Kd [2]: 138 nM
koff [2]: 0.0252 s⁻¹
kon [2]: 182000 M⁻¹ s⁻¹
t½ [2]: 27.6 s
B1: humanized anti-E-selectin antibody 0841 (antibody, human IgG1, kappa, V domains shown)
VH: EVQLVESGGGLVQPGGSLRLSCAASGYNIRSSYMHWVRQAPGKGLEWVARIDPANGNTIYAEKFKIRFTISADNAKNSAYLQMNSLRAEDTAVYYCAMDLYSTSEYWGQGTLVTVSS
VL: DIQMTQSPSSLSASVGDRVTITCKTSQNINRYLNWYQQKPGKAPKLLIYNANSLQTGVPSRFSGSGSGTDFTLTISSLQPEDFATYFCLQDNSWPLTFGQGTKVEIKR
notes: effector-null human IgG1, kappa

IC50 [3]: 2.39 to 2.91 nM
B2: optimized anti-E-selectin antibody 1444 (antibody, human IgG1, kappa, V domains shown)
VH: B1 VH with N28A, S32A, A61V, E62D, K63S, F64V, K65T, I66G
VL: B1 VL with N30E, N50A, N52S, T56S, S93A
notes: as for B1
